Reference: the supplement of paper PMC10899765

Key:
Details in all cases: 20 nM; 72 h
[1] = test system: MCF10A; test: percent viability (nuclei count relative to siNT); higher = more viable cells
Protocol: (§1)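 After 72 h, cells were fixed and stained with Hoechst and anti-fibrillarin, and nucleoli per nucleus were counted with CellProfiler. Values are plate-adjusted percent effect for the one-nucleolus and 5+ nucleoli phenotypes, normalised to siNT (0%) and to the positive controls siNOL11 or siKIF11 (100%), as the mean of biological triplicates. Percent viability is the nuclei count relative to siNT.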

[2] = test system: MCF10A; test: one-nucleolus phenotype percent effect (relative to siNT 0% and siNOL11 100%); higher = more cells with one nucleolus (ribosome biogenesis inhibition)
Protocol: as §1

[3] = test system: MCF10A; test: 5+ nucleoli phenotype percent effect (relative to siNT 0% and siKIF11 100%); higher = more cells with five or more nucleoli
Protocol: as §1

| Sequence | percent viability [1] [%] | one-nucleolus phenotype percent effect [2] [%] | 5+ nucleoli phenotype percent effect [3] [%] |
| --- | --- | --- | --- |
| CAGUUCAGAAGUGUUCCUGAGU [hsa-miR-5000-5p] | 32.3 | -9.77 | -19.1 |
| CUGCAAAGGGAAGCCCUUUC [hsa-miR-518a-5p] | 32.4 | 60.3 | -45.8 |
| AUGGGUGAAUUUGUAGAAGGAU [hsa-miR-1262] | 27.2 | 17.3 | -20.4 |
| UGGGCGUAUCUGUAUGCUA [hsa-miR-585] | 39.1 | 41.1 | -5.6 |
| AAUGUUGGAAUCCUCGCUAGAG [hsa-miR-4781-3p] | 34.3 | -0.0524 | 12.4 |
| UUGUGUGAGUACAGAGAGCAUC [hsa-miR-6818-5p] | 17.1 | 66.1 | -31.6 |
| UUGGGAUCAUUUUGCAUCCAUA [hsa-miR-450b-3p] | 42.8 | -1.71 | -2.46 |
| CUCCCACAUGCAGGGUUUGCA [hsa-miR-188-3p] | 57.7 | -6.75 | 25 |
| UGCCCUGCCUGUUUUCUCCUUU [hsa-miR-3173-5p] | 148 | -24.3 | 35.2 |
| CUUUGAGCACAUGAGCAGACGGA [hsa-miR-8055] | 92.5 | -6.93 | -14.2 |
| GGGGUUCCUGGGGAUGGGAUUU [hsa-miR-23a-5p] | 103 | -14 | 40.3 |
| AGGGGGCGGGCUCCGGCG [hsa-miR-4488] | 70.5 | -5.44 | 8.35 |
| UGCAGCUCUGGUGGAAAAUGGAG [hsa-miR-4660] | 43.5 | 1.97 | -12.2 |
| GCAUUGUGCAGGGCUAUCA [hsa-miR-4289] | 35 | -8.06 | 7.06 |
| UAAGGGGUGUAUGGCAGAUGCA [hsa-miR-3936] | 19.2 | 36.7 | -17.6 |
| UCCUGCCACCUCCUCCGCAG [hsa-miR-6727-3p] | 32.5 | 19.2 | -26.4 |
| UUUCUUCUUAGACAUGGCAGCU [hsa-miR-4659b-3p] | 31.6 | -5.32 | -29.4 |
| UGAGCGCCUCGACGACAGAGCCG [hsa-miR-339-3p] | 82.2 | -25.2 | 27 |
| GCCCCGGGCAGUGUGAUCAUC [hsa-miR-5587-3p] | 108 | -20.5 | 18.8 |
| CAGCCCCACAGCCUCAGA [hsa-miR-4323] | 39.3 | 2.83 | -13.4 |
| AUGGAUAAGGCUUUGGCUU [hsa-miR-1261] | 50.3 | 24.4 | -12.9 |
| AUAGCAGCAUGAACCUGUCUCA [hsa-miR-4524a-5p] | 24.9 | 21.6 | -12.6 |
| AAGUGAUCUAAAGGCCUACAU [hsa-miR-1245a] | 48.6 | 10.4 | -34 |
| CGUGUAUUUGACAAGCUGAGUU [hsa-miR-223-5p] | 20 | 31.4 | -35 |
| ACUUACAGACAAGAGCCUUGCUC [hsa-miR-600] | 145 | -28.1 | 41.8 |
